Measured values reported in patent publication US20230011234A1 (JOINT STOCK COMPANY BIOCAD, published 2023).

Tests used:
PD-L1-Fc receptor [1] = target: T1, PD-L1-Fc receptor (human, UniProt Q9NZQ7 19-238, limits assumed); assay: BLI (OctetRed 96), PD-L1-Fc in solution, 1:1 model
T1 construct: also called human PD-L1 receptor; not shown: Fc

[2] = target: PD-1 on Jurkat NFAT-FLuc PD-1 cells (UniProt Q15116 25-288, limits assumed); assay: cell-based or functional assay
PD-L1-Fc receptor [3] = target: T1, PD-L1-Fc receptor; assay: BLI (OctetRed 96), PD-L1-Fc in solution; Response 0 and KD 0
Method: (§1) The affinity constants for binding of IL15SA bispecific immunocytokines (hereinafter referred to as anti-PD1-Fab-CK_IL15Ra_Hc_IL15CH1FcknobLALA anti-PD-L1-Fab-CK_IL15Ra_Hc_IL15CH1FcknobLALA) to IL2βγ and human PD-1/PD-L1 receptors were measured using OctetRed 96 according to the ForteBio instructions. AR2G biosensors were pre-rehydrated for an hour in mQ. After the activation of biosensors, the bispecific immunocytokines at a concentration of 25 μg/ml in acetate buffer pH4 were non-specifically (by NH₂ groups) immobilized onto the biosensor. The sensors were then immersed into wells containing Human CD122/IL-2RB Protein (Fc Tag) or PD-1-Fc receptor or PD-L1-Fc receptor (1 and 0.5 μg/ml) in PBS buffer supplemented with 0.1% Tween-20 and 0.1% BSA to associate the bispecific super-agonist and the test receptor. The sensors were then immersed in a buffer solution for a subsequent dissociation step.
(§2) The instrumental data, after subtracting a reference signal, were analyzed using Octet Data Analysis software (Version 8.0) in accordance with the standard procedure and using 1:1 interaction model.

PD-1-Fc receptor = target: T2, PD-1-Fc receptor (human, UniProt Q15116 25-167, limits assumed); assay: BLI (OctetRed 96), PD-1-Fc in solution, 1:1 model
T2 construct: also called human PD-1 receptor; not shown: Fc
T2 sequence (Q15116 25-167 limits assumed): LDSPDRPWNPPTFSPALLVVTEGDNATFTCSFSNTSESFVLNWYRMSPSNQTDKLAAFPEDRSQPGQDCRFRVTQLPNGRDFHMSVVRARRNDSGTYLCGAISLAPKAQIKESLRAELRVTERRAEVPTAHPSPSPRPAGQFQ
Method: as §1, §2

[4] = target: T3, Human CD122/IL-2RB Protein (Fc Tag) (human, UniProt P14784 27-240); assay: BLI (OctetRed 96), CD122/IL-2RB-Fc in solution; Response 0 and KD 0
T3 construct: No gamma chain is mentioned; also called human IL2βγ; human IL2βγ-Fc; not shown: Fc tag
T3 sequence (looked up): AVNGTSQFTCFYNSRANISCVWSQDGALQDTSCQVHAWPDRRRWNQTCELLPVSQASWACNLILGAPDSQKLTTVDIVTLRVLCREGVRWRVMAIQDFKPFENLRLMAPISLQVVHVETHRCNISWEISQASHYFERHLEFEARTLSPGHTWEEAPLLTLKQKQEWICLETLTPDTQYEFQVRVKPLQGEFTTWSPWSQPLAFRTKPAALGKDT
Method: as §1, §2

T1 sequence (Q9NZQ7 19-238 limits assumed): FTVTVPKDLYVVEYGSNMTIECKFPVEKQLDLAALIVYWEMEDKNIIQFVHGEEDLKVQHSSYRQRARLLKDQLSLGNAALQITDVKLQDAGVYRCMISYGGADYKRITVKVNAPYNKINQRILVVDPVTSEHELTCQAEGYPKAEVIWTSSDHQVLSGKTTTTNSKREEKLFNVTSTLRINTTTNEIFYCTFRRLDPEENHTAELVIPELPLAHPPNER
Sequence of PD-1 on Jurkat NFAT-FLuc PD-1 cells (Q15116 25-288 limits assumed): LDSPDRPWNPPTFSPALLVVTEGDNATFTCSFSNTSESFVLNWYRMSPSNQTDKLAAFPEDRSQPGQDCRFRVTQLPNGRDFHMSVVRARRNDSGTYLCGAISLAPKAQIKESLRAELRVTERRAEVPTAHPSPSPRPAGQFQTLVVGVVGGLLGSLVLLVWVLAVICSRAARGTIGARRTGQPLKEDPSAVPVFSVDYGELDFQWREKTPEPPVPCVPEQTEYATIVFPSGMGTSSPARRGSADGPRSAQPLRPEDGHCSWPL

B1: BCD-135 (antibody)
chain 1: not shown
chain 2: QTVVTQEPSLSVSPGGTVTLTCGLSSGTVTAINYPGWYQQTPGQAPRTLIYNTNTRHSGVPDRFSGSISGNKAALTITGAQAEDEADYYCALYMGNGGHMFGGGTKLTVLGQPKAAPSVTLFPPSSEELQANKATLVCLISDFYPGAVTVAWKADSSPVKAGVETTTPSKQSNNKYAASSYLSLTPEQWKSHRSYSCQVTHEGSTVEKTVAPTECS
- Kd (PD-L1-Fc receptor [1]): < 0.001 nM

B2: prolgolimab (antibody, V domains shown)
VH: QVQLVQSGGGLVQPGGSLRLSCAASGFTFSSYWMYWVRQVPGKGLEWVSAIDTGGGRTYYADSVKGRFAISRVNAKNTMYLQMNSLRAEDTAVYYCARDEGGGTGWGVLKDWPYGLDAWGQGTLVTVSS
VL: QPVLTQPLSVSVALGQTARITCGGNNIGSKNVHWYQQKPGQAPVLVIYRDSNRPSGIPERFSGSNSGNTATLTISRAQAGDEADYYCQVWDSSTAVFGTGTKLTVLQ
notes: also called Anti-PD-1 prologolimab; BCD100
- EC50; NFAT-luciferase luminescence (RLU x 10^-3) in co-culture of Jurkat NFAT-FLuc PD-1 cells and Raji PDL1 cells with aCD3/aTAA1 at 1 ng/ml; relief of PD-1/PDL1 inhibition [2]: 0.027 µg/mL
- binding result (PD-L1-Fc receptor [3]): no binding (tested: 1 and 0.5 µg/ml)
- Kd (PD-1-Fc receptor): 0.186 nM
- binding result [4]: no binding (tested: 1 and 0.5 µg/ml)
